{
  "source": "patent US20180222958A1",
  "about": "(ONCOMED PHARMACEUTICALS, published 2018)",
  "key": {"[1]": {"biological_target": "T1, membrane-bound extracellular domain of mouse LTβR (mLTβR-CD4TM-GFP) (mouse, UniProt P50284 31-223)", "T1 construct": "extracellular domain; also called mouse LTβR ecd, CD4TM and GFP; mLThR-GFP; not shown: CD4 transmembrane domain and GFP fused after the extracellular domain", "T1 sequence (P50284 31-223)": "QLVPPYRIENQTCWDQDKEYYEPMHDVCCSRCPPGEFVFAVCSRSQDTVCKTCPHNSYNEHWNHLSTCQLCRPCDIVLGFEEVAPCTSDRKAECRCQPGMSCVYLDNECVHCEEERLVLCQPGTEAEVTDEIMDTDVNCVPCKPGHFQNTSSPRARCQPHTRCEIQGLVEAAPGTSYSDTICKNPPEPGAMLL", "test": "flow cytometry on HEK 293T cells transiently transfected with mouse LTβR ecd-CD4TM-GFP (row 'mLTBR GFP'); '0.5 ug/ml' printed at the upper left of the figure; APC-conjugated Fc secondary", "protocol": "(§1) To test the binding of the different c-terminal human lymphotoxin heterotrimer constructs to human and mouse LTβR, HEK 293T cells were transiently transfected with cDNA expression vectors encoding cDNA for human or mouse LTβR ecd, CD4TM and GFP. Cells were then incubated with the various human lymphotoxin constructs 363F2, 363F3, or 363F4, washed and stained with APC-conjugated Fc secondary antibody. Mouse (deglycosylated) IgG1 Fc-mouse lymphotoxin-αββ heterotrimer fusion protein 363F1 was also tested. Binding of the lymphotoxin constructs was then assessed by flow cytometry using a Canto II FACS instrument (BD Biosciences) and analyzed using FlowJo software."}, "[2]": {"biological_target": "T2, human LTβR ecd, CD4TM and GFP (human, UniProt P36941 31-227)", "T2 construct": "extracellular domain; also called hLTβR; hLThR-GFP; not shown: CD4 transmembrane domain and GFP fused after the extracellular domain", "T2 sequence (P36941 31-227)": "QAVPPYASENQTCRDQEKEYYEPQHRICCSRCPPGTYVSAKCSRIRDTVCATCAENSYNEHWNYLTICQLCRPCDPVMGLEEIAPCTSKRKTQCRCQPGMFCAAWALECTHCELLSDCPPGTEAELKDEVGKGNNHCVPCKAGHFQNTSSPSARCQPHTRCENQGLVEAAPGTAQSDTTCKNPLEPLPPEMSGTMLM", "test": "flow cytometry on HEK 293T cells transiently transfected with human LTβR ecd-CD4TM-GFP (row 'hLTBR GFP'); '0.5 ug/ml' printed at the upper left of the figure; APC-conjugated Fc secondary", "protocol": "as §1"}},
  "data": [
    {"binder": "363F1 mFc-mLTαββ (Fc fusion, also called mouse LTαββ; mouse (deglycosylated) IgG1 Fc-mouse lymphotoxin-αββ heterotrimer fusion protein) GCKPCICTVPEVSSVFIFPPKPKDVLTITLTPKVTCVVVDISKDDPEVQFSWFVDDVEVHTAQTQPREEQFASTFRSVSELPIMHQDWLNGKEFKCRVNSAAFPAPIEKTISKTKGRPKAPQVYTIPPPKEQMAKDKVSLTCMITDFFPEDITVEWQWNGQPAENYKNTQPIMDTDGSYFVYSKLNVQKSNWEAGNTFTCSVLHEGLHNHHTEKSLSHSPGKKPAAHLVGYPSKQNSLLWRASTDRAFLRHGFSLSNNSLLIPTSGLYFVYSQVVFSGESCSPRAIPTPIYLAHEVQLFSSQYPFHVPLLSAQKSVYPGLQGPWVRSMYQGAVFLLSKGDQLSTHTDGISHLHFSPSSVFFGAFALLNPELPAAHLIGAWMSGQGLSWEASQEEAFLRSGAQFSPTHGLALPQDGVYYLYCHVGYRGRTPPAGRSRARSLTLRSALYRAGGAYGRGSPELLLEGAETVTPVVDPIGYGSLWYTSVGFGGLAQLRSGERVYVNISHPDMVDYRRGKTFFGAVMVGLNPELPAAHLIGAWMSGQGLSWEASQEEAFLRSGAQFSPTHGLALPQDGVYYLYCHVGYRGRTPPAGRSRARSLTLRSALYRAGGAYGRGSPELLLEGAETVTPVVDPIGYGSLWYTSVGFGGLAQLRSGERVYVNISHPDMVDYRRGKTFFGAVMVG", "values": [
      {"measurement": "MFI", "setting": "[1]", "value": 4740},
      {"measurement": "MFI", "setting": "[2]", "value": 2260}
    ]}
  ]
}
